Our source for the amyloid nucleation score values is the supplement of paper PMC12042874.

± gives the uncertainty stated by the source.

This data set can be described thus: amyloid nucleation score (Sup35N fusion, yeast selection) (log enrichment); library NNK3; higher = more nucleation; inactive = no reads after selection. In short, it runs like this: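 Random libraries were run with three technical output replicates. In each, psi-negative yeast expressing Sup35N fused to peptides of 20 random codons were induced 24 hours with 100 μM copper sulfate and grown 7 days at 30°C on medium lacking adenine and uracil, and input and output plasmid inserts were Illumina-sequenced. The nucleation score is the DiMSum log enrichment of output over input reads, centred on the mode score of non-aggregating sequences, and sequences under 100 input reads were excluded.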
In the case of TCSFECGACTRQVDAVCQLG, the amyloid nucleation score result is “inactive”.

As to LFSQAHGYRDVLGGFRVFWV, the amyloid nucleation score entry was “inactive”. With HNETKLCSHMLGVMGKNCGE the entry was “inactive”; with PFPRNGLFHLFWYGLCYMAL, “inactive”. As for NWSVHTGIDKVKADDGEFQL, the entry is “inactive”; as for SFHTSGSNKGYCCGVMWMDK, “inactive”; as for LNRVRSS, -0.108 ± 0.7.

As for CFTVVPGSVMF, the amyloid nucleation score result was “inactive”.

On to VDVFK, for which the amyloid nucleation score entry is “inactive”.

As to NCRSFCC, the amyloid nucleation score worked out at 0.905 ± 0.094. As for HMIKVIVLCMMRFFIKSKNS, the entry is “inactive”; as for SLGSCFSTCAVVHQRMKLGG, “inactive”; as for YIYRKCVD, “inactive”. With VFTDLCTYKTCTYVIPCTAE the entry was “inactive”.

As for RFVLQ, the amyloid nucleation score entry is “inactive”. With VRIMCMSWIVVWHYMC the entry was “inactive”. With SRRYFYIDIRYRNIKP the entry was “inactive”; with TQNLNRRGKIRVVRDYIDYW, 0.554 ± 0.15; with DVGMGRHGKAMK, “inactive”. YGFMCLVCIGTCDCKRSWQG registered an amyloid nucleation score of 2.28 ± 0.086. As to NVRVYSFQMTVECKELLDSQ, the amyloid nucleation score result is “inactive”. Turning to CYLISILPLGLFIDSLAWVT, the amyloid nucleation score result is “inactive”. With WILSNRWKFHLVGLVIAFV, the amyloid nucleation score entry was “inactive”. As to YLTEWDLGNVWRNPSAATPM, the amyloid nucleation score entry is “inactive”. Turning to VYRCVFWDVCAWCFKFR, the amyloid nucleation score is 0.778 ± 0.14. As for CWTAPLSKFLRVWVTIPYNL, the entry is “inactive”; as for CECVGFRSRYM, 0.038 ± 0.3; as for LLRSCYVSYALNGYSTTFRD, “inactive”.

As to HSNECFLGDSSNWWVYWAVR, the amyloid nucleation score result is “inactive”.

In the case of TFVHAYTGWMEFVV, the amyloid nucleation score result is “inactive”. Consider AHVALR, for which the amyloid nucleation score entry was “inactive”. On to VFSMWFSGLTTSIYRSLED, for which the amyloid nucleation score result is “inactive”. In turn, REGRVLVWYSYYKFYTRHYF gave an amyloid nucleation score of 0.004 ± 0.72. Consider GGARL, for which the amyloid nucleation score result was “inactive”. As for PIFFCFNDVWTGNVVLDAMG, the figure is 3.05 ± 0.058.

ASILEFPRSTKSTSLGRSGR: the amyloid nucleation score entry was “inactive”.

Regarding CAYVENSCGTILVCALYCGS, the amyloid nucleation score entry was “inactive”. As for LMFDVFLMSTFVFDNL, the entry is “inactive”; as for RKYVTRCASMMVHHYAYDTR, “inactive”. Take RMKFGADIAVVHVCPMEFSG: the amyloid nucleation score result was “inactive”.

On to LFLGLIVVGTVLNELSMTNA, for which the amyloid nucleation score entry is “inactive”. As for WASYDGPEKRRNHTRYYISM, the entry is “inactive”. As for HVPGRIWDVFTRLLNEVLTN, the entry is “inactive”; as for CYVIILVRL, “inactive”.

As for VSLVWDMHWHSYRVSSELCR, the amyloid nucleation score entry is “inactive”.

WTMSLLQFDLDTSTSTLTMV: the amyloid nucleation score result is “inactive”. With YLSTL the entry was “inactive”; with GMAEFALQWIRMIGRL, 0.214 ± 0.45. With NRFMVPETVKENIACFQTIQ the entry was “inactive”.

Turning to IEWLI, the amyloid nucleation score entry was “inactive”. With ISGIHITSELRRGTPERCSH the entry was “inactive”. Consider PNYKNYLGGNRVVS, for which the amyloid nucleation score entry is “inactive”.

Consider TLYVFWCEQFKRAYWLYVSK, for which the amyloid nucleation score result is “inactive”. As for RIPVSWFNWCTWVYVL, the entry is “inactive”. As for YSGWTPKLAVH, the entry is “inactive”. With MLGDLAYCGYMSSAGVGSLI the entry was “inactive”. For the substance KPVKTWNYLFWMCL, the amyloid nucleation score was 2.49 ± 0.072. With SRNVGFGINSQQGLFFRVVV the entry was “inactive”. In the case of SKVWRYI, the amyloid nucleation score result is “inactive”. With WRYVFLVC the entry was “inactive”; with RRAVVLSVRGWRSAVTSRFS, “inactive”. In the case of VTSPFTPSI, the amyloid nucleation score is -0.336 ± 0.63.

With TDIFKSFIRNMNLVWFRVMT, the amyloid nucleation score entry is “inactive”. With KVGTVLWCFTCSAGHRECNG the figure was 2.75 ± 0.055; with SSYSVVFEQ, “inactive”. As for WRNMTI, the entry is “inactive”; as for RFRHGDTGSTFRCWCFVS, “inactive”; as for LFMCMIFDCDIRIVNSVGCI, 1.43 ± 0.14. For the substance TFFWTRCDIVGREWVSNTVN, the amyloid nucleation score entry was “inactive”. Turning to SWTSVSFRRMLMDSSR, the amyloid nucleation score entry was “inactive”. For the substance TSLASNFANVTSVTCY, the amyloid nucleation score is -0.679 ± 1. With DTREN the entry was “inactive”; with NKNHYFRVF, “inactive”.

For IWSIQLSFKIASSCNFATG, the amyloid nucleation score entry was “inactive”. As for SLLSIFVKGARLQISDVSQG, the figure is 0.773 ± 0.18. As to HLWCKPRLWKSLFVPYD, the amyloid nucleation score entry was “inactive”. As for LCVRFARMSGSAHLVESYVD, the amyloid nucleation score entry was “inactive”. With IWKRLYPFTVRQVSCTIMCD the entry was “inactive”; with IHTQAFMGMFSLHWNHVFDL, “inactive”. As for WHDYTQRGVWAHGTALVWG, the entry is “inactive”; as for YHGCPERVWLSA, “inactive”; as for SSRRYS, “inactive”. As for DNSVNKYKKTNVSVISARVR, the entry is “inactive”; as for FSRFSNAFPKNCWVLLVENS, “inactive”; as for TFLNFSVIGVTSLGTDRAYD, “inactive”. Take LINNSEASLIHYIYGRGNVQ: the amyloid nucleation score is -0.664 ± 1.9.

Turning to RDLVPLDDRA, the amyloid nucleation score result was “inactive”. As to KTSVEISN, the amyloid nucleation score entry was “inactive”. For MLNVINVYHVSSCGLRGNFE, the amyloid nucleation score was determined as 2.63 ± 0.077. As for RGGCQATVGNALNIRFFAQG, the figure is 1.72 ± 0.095.

With CSYAEKIVKGLAPVFLKVN, the amyloid nucleation score entry is “inactive”. With WNEAWWNNRLGLARMVVLLG the entry was “inactive”; with SCVTHLPTVT, “inactive”. The substance RHGLCFTIEAVPPPFIRWHW yielded an amyloid nucleation score of -0.662 ± 1.3. With PGKYGLV the entry was “inactive”; with WVSFKDLSELCLGCFRMPRF, “inactive”. For RLPLPL, the amyloid nucleation score result is “inactive”. With NYYLGETLA the entry was “inactive”.
